Substitutions are numbered along the chain they refer to.
B1: 8E1-Chim (antibody, human IgG1, V domains shown)
VH: EVKLVESGGGLVQPGGSRKLSCAASGFTFSDYGMVWVRQAPGKGLEWVASISSGSSNIYYADTVKGRFTISRDDPNNTLFLQMRSLRSEDTAMYYCARNPYWGQGTTLTVSS
VL: DIVMTQSQKFMSTSVGDRVSVTCKASQNVGTNVAWYQQKPGQSPKGLIYSASHRYSGVPDRFAGSGSGTDFTLTISNVQSEDLAEYFCQQYNSYPLTFGGGTKLELKR
B2: 1D4-Chim (antibody, human IgG1, V domains shown)
VH: QVTLKESGPGILQPSQTLSLTCSFSGFSLRKSVMGVSWIRQPSGKGLEWLAHIYWDDDKYYNPSLKSRLTISKDPSRNQVFLKITSVDTADAATYYCTRRGIRSAMDYWGQGTSVTVSS
VL: SVVMTQTPKFLLVSAGDRVTITCKASQSVSNDVAWYQQKPGQSPKLLIYYASNRYTGVPDRFTGSGYGTDFTFIISTVRAEDLAVYFCQQDYNSPWTFGGGTKLEIKR
B3: 3G7-Chim (antibody, human IgG1, V domains shown)
VH: QVQLQQSGAELMKPGASVKISCKATGYTFNDYWIEWVKQRPGHGLEWIGGFSHGSGSTNYNEKFKGKATFTADSSSNTAYMQLSSLTSEDSAVYYCARRRFRGMDYWGQGTSVTVSS
VL: B2 VL with V2I, I74T, S76T, R79Q, N93S, T97S
B4: 1A6-Chim (antibody, human IgG1, V domains shown)
VH: QVTLKESGPGILKPSQTLSLTCSFSGFSLSTSGMGVSWIRQPSGKGLEWLAHIWWDGDNYYNPSLKSQLTISKDTSRNQVFLRIATVDTADTATYYCARRTRVNYAMDYWGQGTSVTVSS
VL: B2 VL with Y36F, I74T, R79Q

molecular target: recombinant purified cyno IL-12 p70 (cynomolgus monkey); assay: cell-based or functional assay
Sequence (P48095 23-328, chain 1 of 2): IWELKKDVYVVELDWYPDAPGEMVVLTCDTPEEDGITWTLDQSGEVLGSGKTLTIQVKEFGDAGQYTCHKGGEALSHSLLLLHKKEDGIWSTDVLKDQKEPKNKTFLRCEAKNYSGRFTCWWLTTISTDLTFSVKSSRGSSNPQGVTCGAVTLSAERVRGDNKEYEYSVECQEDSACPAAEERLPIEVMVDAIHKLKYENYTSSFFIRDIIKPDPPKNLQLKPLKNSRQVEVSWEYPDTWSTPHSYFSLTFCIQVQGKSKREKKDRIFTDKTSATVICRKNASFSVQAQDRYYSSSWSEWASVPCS
Sequence (P48091 23-219, chain 2 of 2, further chain): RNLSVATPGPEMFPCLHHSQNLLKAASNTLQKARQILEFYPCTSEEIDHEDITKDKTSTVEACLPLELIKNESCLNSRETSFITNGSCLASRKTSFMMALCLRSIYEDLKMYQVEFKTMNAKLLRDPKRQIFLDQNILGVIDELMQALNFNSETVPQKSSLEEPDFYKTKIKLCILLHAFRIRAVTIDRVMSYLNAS

Average IC50 (nM) Cyno IL-12; PHA blast IFN-gamma induction assay [nM] | Binder
0.15 | B1
0.07 | B2
0.32 | B3
0.02 | B4

— US20100047245A1 (AbbVie / Abbott, published 2010)
